These results are taken from US12503443B2, “Process-scale synthesis of a plasma kallikrein inhibitor” (BioCryst Pharmaceuticals, Inc., priority 2019, dated 2025).

One assay addresses human plasma kallikrein (Homo sapiens, UniProt P03952). Kind of assay: in vitro biochemical assay measuring inhibition of human plasma kallikrein activity. As to conditions: protocols and results in WO 2015/134998 and US 2017/0073314 A1. As for the experimental part:
Compound I was assayed in an in vitro biochemical assay measuring inhibition of human plasma kallikrein activity. Experimental protocols and results of the assays are found in WO 2015/134998 and U.S. Patent Application Publication No. 2017/0073314 A1 (both incorporated by reference).

Assay [1] deals with patients with hereditary angioedema (HAE). As to conditions: human, in vivo; cited from earlier work.
The test system of a further assay is rat models of arthritis. As to conditions: cited from earlier work.
For a further assay, the system named is sepsis patients. The conditions noted are these: cited from earlier work.
For assay [2], the system named is mouse model of middle cerebral artery occlusion (MCAO). As to conditions: cited from earlier work.
Assay [3] deals with lipopolysaccharide (LPS)- or bacterial-induced sepsis in animals. The conditions noted are these: cited from earlier work.

human plasma kallikrein, sequence (P03952 391-638 limits assumed): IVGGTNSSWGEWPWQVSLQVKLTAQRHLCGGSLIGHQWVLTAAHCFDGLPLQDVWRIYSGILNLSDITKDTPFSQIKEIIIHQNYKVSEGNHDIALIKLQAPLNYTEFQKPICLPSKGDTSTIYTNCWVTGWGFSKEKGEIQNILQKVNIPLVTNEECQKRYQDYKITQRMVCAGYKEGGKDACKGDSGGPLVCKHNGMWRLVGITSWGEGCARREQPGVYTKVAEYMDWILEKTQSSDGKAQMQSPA
human plasma kallikrein, sequence (P03952 20-390 partner limits assumed): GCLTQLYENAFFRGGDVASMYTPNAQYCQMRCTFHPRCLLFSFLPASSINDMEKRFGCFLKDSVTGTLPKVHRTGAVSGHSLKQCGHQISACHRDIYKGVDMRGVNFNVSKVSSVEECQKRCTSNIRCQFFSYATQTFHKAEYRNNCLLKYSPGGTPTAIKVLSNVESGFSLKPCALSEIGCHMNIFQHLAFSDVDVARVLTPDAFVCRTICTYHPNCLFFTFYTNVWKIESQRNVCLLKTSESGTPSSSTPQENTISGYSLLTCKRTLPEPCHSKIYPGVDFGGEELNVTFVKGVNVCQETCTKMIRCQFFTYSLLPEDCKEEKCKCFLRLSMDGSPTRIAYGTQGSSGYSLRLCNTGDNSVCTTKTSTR

Turning to `N#Cc1cccc([C@@H](NCC2CC2)c2ccc(F)c(NC(=O)c3cc(C(F)(F)F)nn3-c3cccc(CN)c3)c2)c1` [Compound I], on human plasma kallikrein, the “inhibition of human plasma kallikrein activity” value is recorded as “potent inhibitor”. On to `NC(N)=NCCC[C@@H](N)C(=O)N[C@@H](CCCN=C(N)N)C(=O)N1CCC[C@H]1C(=O)N1C[C@H](O)C[C@H]1C(=O)NCC(=O)N[C@@H](Cc1cccs1)C(=O)N[C@@H](CO)C(=O)N1Cc2ccccc2C[C@@H]1C(=O)N1[C@H](C(=O)N[C@@H](CCCN=C(N)N)C(=O)O)C[C@@H]2CCCC[C@@H]21` [Icatibant], for which the “treating HAE” value in assay [1] is listed as “effective”. As for `Cl.NCC1CCC(C(=O)N[C@@H](Cc2ccccc2)C(=O)Nc2ccc(CC(=O)O)cc2)CC1` (stereo partly shown) [PKSI-527], the joint swelling entry in the assay with rat models of arthritis is “reduce”.

B1: C1-inhibitor: physiological inhibitor of kallikrein in human plasma (protein, UniProt P05155 23-500, looked up)
Plasma protease C1 inhibitor: NPNATSSSSQDPESLQDRGEGKVATTVISKMLFVEPILEVSSLPTTNSTTNSATKITANTTDEPTTQPTTEPTTQPTIQPTQPTTQLPTDSPTQPTTGSFCPGPVTLCSDLESHSTEAVLGDALVDFSLKLYHAFSAMKKVETNMAFSPFSIASLLTQVLLGAGENTKTNLESILSYPKDFTCVHQALKGFTTKGVTSVSQIFHSPDLAIRDTFVNASRTLYSSSPRVLSNNSDANLELINTWVAKNTNNKISRLLDSLPSDTRLVLLNAIYLSAKWKTTFDPKKTRMEPFHFKNSVIKVPMMNSKKYPVAHFIDQTLKAKVGQLQLSHNLSLVILVPQNLKHRLEDMEQALSPSVFKAIMEKLEMSKFQPTLLTLPRIKVTTSQDMLSIMEKLEFFDFSYDLNLCGLTEDPDLQVSAMQHQTVLELTETGVEAAAASAISVARTLLVFEVQQPFLFVLWDQQHKFPVFMGRVYDPRA
In the case of B1, the “clinical outcome in sepsis patients” value in the assay on sepsis patients was “Clinical improvement”. Moreover, in assay [2], the infarct size result is “reduced”. Besides, in assay [3], the lesions entry is given as “reduce” and the “vascular permeability in multiple organs” value was “reduce”.
